Results published in patent US20030176671A1 (SANFORD BURNHAM MEDICAL RESEARCH INSTITUTE, published 2003).

T1: GFP-Bak (UniProt Q16611 1-211)
T1 construct: also called pEGFP-Bak; not shown: EGFP from a pEGFP vector
T1 sequence (looked up): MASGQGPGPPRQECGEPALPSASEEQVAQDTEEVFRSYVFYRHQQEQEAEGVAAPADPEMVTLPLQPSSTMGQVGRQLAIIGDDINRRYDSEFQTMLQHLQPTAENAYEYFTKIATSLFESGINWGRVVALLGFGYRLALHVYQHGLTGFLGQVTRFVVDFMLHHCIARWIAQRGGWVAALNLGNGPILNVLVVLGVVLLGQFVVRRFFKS


What was measured:
GFP-Bak = target: T1, GFP-Bak; test: co-immunoprecipitation from transfected 293T cell lysates, immunoblot
Bax = target: T2, Bax (UniProt Q07812 1-192, limits assumed); test: co-immunoprecipitation with anti-Myc beads from HEK293T lysates, anti-Bax immunoblot (FIG. 4A)
T2 construct: also called pcDNA3-Bax
T2 sequence (Q07812 whole entry): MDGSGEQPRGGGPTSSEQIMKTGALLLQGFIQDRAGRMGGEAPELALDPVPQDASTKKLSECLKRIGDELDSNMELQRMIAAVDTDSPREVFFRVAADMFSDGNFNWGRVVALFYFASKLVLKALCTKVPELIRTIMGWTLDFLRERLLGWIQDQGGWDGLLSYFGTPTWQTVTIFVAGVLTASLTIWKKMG
Experimental: 293T cells (5×10₆) cultured with 50 uM […]-Val-Ala-Asp-fluoromethylketone (ZVAD-fmk, Bachem) were co-transfected with 1.5 ug of pcDNA3-Myc-Bcl-B, pcl-Neo-Flag-Bcl-B, pcDNA3-hCBP (Human Calcyclin Binding Protein) (used as a control), or pcDNA3-Flag-BCI-XL, together with 1.5 ug of pEGFP, pEGFP-Bcl-B, pcDNA3-HA-BAG1, pcDNA3-HA-Bax, pcDNA3-Flag-Bcl-XL, pRC-CMV-Bcl-2 or pEGFP-Bak. At 24 hrs post-transfection, cells were collected and resuspended in lysis buffer (142.4 mM KCI, 5 mM MgCl₂, 10 MM HEPES (pH 7.4), 0.5 mM EGTA, 0.2% NP-40) containing 12.5 mM p-glycerophosphate, 2 mM NaF, 1 mM Na₃VO₄, 1 mM DTT, 1 mM PMSF and a protease inhibitor mixture (Boehringer Mannheim). Soluble lysates were incubated with 10 ul anti-Myc (Santa Cruz) or anti-Flag (Sigma) antibody conjugated Sepharose beads overnight at 4° C. Beads were washed four times in 1.5 ml lysis buffer, and boiled in Laemmli gel-loading solution before performing SDS-PAGE/immunoblotting. The following polyclonal or monoclonal antibodies were used: polyclonal rabbit anti-GFP (Roche), monoclonal rat anti-HA (Roche), monoclonal mouse anti-Flag (Sigma), monoclonal mouse anti-Myc (Santa Cruz), rabbit anti-huBcl—2, or rabbit anti-huBcl-XL (Krajewski, et al., Am. J. Pathol. 145, 515-525 (1994); Krajewski et al., Cancer Res. 54, 5501-5507 (1994)).
Binding studies confirmed that binding between Bcl-B and Bax mediates suppression of apoptosis by Bax. In brief, HEK293T cells were transiently transfected with several Myc-tagged constructs (human calcyclin-binding protein, wildtype Bcl-B, L86A, R96Q, FFR(169-171)AAA, Δ118-133) and cell lysates were prepared and immunoprecipitated with anti-Myc antibody conjugated to beads. Immunoprecipitates were subjected to SDS-PAGE/immunoblot analysis using rabbit polyclonal antibodies specific for Bax (FIG. 4A). To confirm expression of proteins, lysates were subject to immunoblot analysis using antibodies specific for Bax and Myc.

| Binder | binding result (GFP-Bak) | binding result (Bax) |
| --- | --- | --- |
| Myc-Bcl-B (other, not shown: small tags and cut ends, Expressed in 293T cells and immunoprecipitated from lysates; also called wildtype Bcl-B; pcDNA3-Myc-Bcl-B) MVDQLRERTTMADPLRERTELLLADYLGYCAREPGTPEPAPSTPEAAVLRSAAARLRQIHRSFFSAYLGYPGNRFELVALMADSVLSDSPGPTWGRVVTLVTFAGTLLERGPLVTARWKKWGFQPRLKEQEGDVARDCQRLVALLSSRLMGQHRAWLQAQGGWDGFCHFFRTPFPLAFWRKQLVQAFLSCLLTTAFIYLWTRLL | no binding | – |
| Myc-Bcl-B L86A (other, not shown: small tags and cut ends, Myc-tagged Bcl-B point mutant) MVDQLRERTTMADPLRERTELLLADYLGYCAREPGTPEPAPSTPEAAVLRSAAARLRQIHRSFFSAYLGYPGNRFELVALMADSVASDSPGPTWGRVVTLVTFAGTLLERGPLVTARWKKWGFQPRLKEQEGDVARDCQRLVALLSSRLMGQHRAWLQAQGGWDGFCHFFRTPFPLAFWRKQLVQAFLSCLLTTAFIYLWTRLL | – | no binding |
| Myc-Bcl-B R96Q (other, not shown: small tags and cut ends, Myc-tagged Bcl-B point mutant) MVDQLRERTTMADPLRERTELLLADYLGYCAREPGTPEPAPSTPEAAVLRSAAARLRQIHRSFFSAYLGYPGNRFELVALMADSVLSDSPGPTWGQVVTLVTFAGTLLERGPLVTARWKKWGFQPRLKEQEGDVARDCQRLVALLSSRLMGQHRAWLQAQGGWDGFCHFFRTPFPLAFWRKQLVQAFLSCLLTTAFIYLWTRLL | – | no binding |
| Myc-Bcl-B deletion 118-133 (other, not shown: small tags and cut ends, also called (delta)118-133) MVDQLRERTTMADPLRERTELLLADYLGYCAREPGTPEPAPSTPEAAVLRSAAARLRQIHRSFFSAYLGYPGNRFELVALMADSVLSDSPGPTWGRVVTLVTFAGTLLERGPLVTARVARDCQRLVALLSSRLMGQHRAWLQAQGGWDGFCHFFRTPFPLAFWRKQLVQAFLSCLLTTAFIYLWTRLL | – | no binding |
